Source: the nanobody polyreactivity screen of Harvey et al. (2022)

Test: yeast display, Sf9 membrane polyspecificity reagent, FACS + sequencing; frameworks hold sequencing errors
Summary of the method: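 Galactose-induced (36–48 hours) yeast carrying a synthetic nanobody display library were exposed to 10% biotinylated, detergent-solubilized Sf9 membrane reagent at 4 °C for 1 hour. FACS followed streptavidin microbead enrichment, using low and high (top ~1%) gates for expression (anti-HA) and reagent binding (streptavidin). Colony PCR, MiSeq 2 × 250 sequencing and CDR-length filtering followed. Labels for polyreactivity reflect the gate of origin.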

| Sequence | polyreactivity (PSR sort gate) |
| --- | --- |
| QVQLVESGGGLVQAGGSLRLSCAASGSIFLAYAMGWYRQAPGKERELVAAITSGGGRTYYADSVKGRFTISRDNAKNTVYLQMNSLKPEDTAVYYCAASYRAGQMWYDYWGQGTQVTVSS | high polyreactivity |
| QVQLVESGGGLVQAGGSLRLSCAASGRIFYRYAMGWYRQAPGKERELVAAISSGGSTYADSVKGRFTISRDNAKNTVYLQMNSLKPEDTAVYFCAARLYTYPKGKYWGQGTQVTVSS | high polyreactivity |
| QVQLVESGGGLVQAGGSLRLSCAASGSIFGYYAMGWYRQAPGKEREFVAAISVSGSRTYYADSVKGRFTISRDNAKNTVYLQMNSLKPEYTAVYYCAARVDYRHRYYYWGQGTLVTVSS | high polyreactivity |
| QVQLVESGGGLDQAGGSLRLSCAATGGTFTRKAMGWYRQAPGKERELVASITSGDTTNYADSVKGRFTISRDNAKNTVYLQMNSLKPEDTAVYYCATDTPTDRYAAYPHDPYYYWGQGTQVTVSS | low polyreactivity |
| QVQLVESGGGLVQAGGSLRLSCAASGGIYGNYAMGWYRQAPGKERELVADITTGGSTYYADSVKGRFTISRDNAKNTVYLQMNSLKPEDTAVYYCNARSLFHRFSSYKYDYWGQGTQVTVST | high polyreactivity |
| QVKLEESGGGLVQAGGSLRLSCAASGSIFVVNAMGRYRPAPGKERELVDTITESGGSTYYADSVKGRFTISRDNAKNTVYLQMNSLKPEDTAVYYCAAYWHHKGDYWGQGTQVTVSS | low polyreactivity |
| QVQLVETGGGLVQAGGSLRLSCAASGPFYPYYAMGSYRQAPGKERELVATISTAGSTNYADSVKGRFTISRDNATNTVYLQMNSLIPEDTAVYYCATRNTWYHRGYDYWGQGTQVPVSS | low polyreactivity |
| QVQHVESVGGLVQAGGSLRLSCAASGRTFTSYDMGWYRQAPLTEREVVAAITGSYTYYADSVKGRFTISRDNAKNTVYLQFNSLKPEDTAVYYCAADEDDVVSGFLRYFYVSYYYWGQGTQVTVSS | low polyreactivity |
| QVQLVESGGGLVQAGGSLRLSCAATGSNFTGNAMVWYRQAPGKERELVAAISRSGGSTYYADSVKGRYTISRDNAKNTVYLQMISLKPEDTAVYYCAAYRTHGPPRAIRFDYWGQGTQVTVSS | high polyreactivity |
| QVQLVESGGGLVQAGGSLRLSCAASGRTFVPDVMGWYRQAPGKERELVAAITSGGSTYYADSVKGRFTISRDNAKNTVYLQMNSLKPEDTAVYYCAKRTSWKYGYWGQGTQVTVSS | high polyreactivity |
| QVQLVESGGGLVQAGGSLRLSCAASGFTFANNAMGWYRQAPGKERELVAAITRGDSTYYAESVKGRFTISRDNAKNTVYLQMNSRKPEDTAVYYCAKEWYFPIYDYWGQGTQVTVSS | low polyreactivity |
| QVQLVESGGGLVQAGGSLRLSCAASGRIFYRYAMGWYRQAPGKERELVATISSGGSTNYADSVKGRFTISRDNAKNTVYLQMNSLKPEDTAVYYCARQSLRYSYVSRDYWGLGTQVTVSS | low polyreactivity |
| QVQLVESGGGLVQSGGSLRLSCAASGSIFDYYAMGWYRQAPGKERELVASINSSGTGTYYADSVKGRFTFSRDNAKNTVSLQVNSMKPEDTAVYYCATRQAVGYSSGRGYGYWGQGTQETVSS | low polyreactivity |
| QVQLVESGGGLVQAGGSLRLSCAASGSTLYYYAMGWYRQAPGKERELVATITNGGSTNYADSVKGRFTISRDNAKNTVYLQMNSLKPEDTAVYYCNARRGYWGSHYWGQGTQVTVSS | high polyreactivity |
| QVQLVESGGGLVQAGGSLRLSCAASGGTIAFNGMGWYRQAPAKERELVAAITWRSGSTYYADSVKGRFTISRDNAKNTVYLQMNSLKPEDTAVYYCAARLYRYTPFDYWGQGTQVTVSS | high polyreactivity |
| QVQLVESGGGLVQAGGSLRLSCAASASIFDDNAMGWYRQAPGKERELVAGISRGGSTNYADSVKGRFTISRDNAKNTVYLQMNSLKPEDTAVYYCNKRYKPSWTTYDYWGQGTQVTVSS | low polyreactivity |
| QVQLVESGGGLVQAGGSLRLSCAASGFIFGLYDMGWDRQAPGKERELVATISDSGGDTYYSDSVKGRFTISRDNAKNTVYLQMNSMKPEDTAVYYCAAKYVYGRGIRAYDYWVQGTQVTVSS | high polyreactivity |
| QVQLVESGGGLDQAGGSLRLSCDASGSSFRKYAMVLYRQAPGKEREFVAAISSSGGRTYYADSVKGRFTISRDNAKYTVYLQMNSLKPEDTSVYYFADDVYSDRYDYWGQGTQVTVSS | high polyreactivity |
| QVQLVESGGGLVQAGGILRLSCAASGRIFGPYTMGWYRQAPGKEREFVAAISRSGDSTYYADSVKGRFTISRDNAKNTVYLQMNSLKPEDTAVYYCAAKYGTRLSAYYYWGQGTQVTVSS | high polyreactivity |
| QVQLVESGGGLVQAGGSLRLSCAASGIFLVYAMGWYRQAPGKERELVAAIRSDASTNYADSVKWRFTISRDNAKKTVYLQMNILKPEDSAVYYCNTAQLVSDEFDYWGQGTQVTVSS | low polyreactivity |
| QVQLVESGGGLVQAGGSLRLSFAASGNIFTFNAMGLYRQATGKDRELDAAIRSGGSTNYADSVKGRFTISRDNAKNTVDLQMNSLKPEDTAVYYCAAKRYVQGYVYRYGYWGQGTQVTVSS | high polyreactivity |
| QVQLVESGGGLVQAGGSLRLSCAASGSTISPYAMGWYRQAPGKEREFVAAISRSGGSTYYADSVKVRFTISRDNAKNTVYLQMNSLKPEDTAVYYCARRYARITPVYPPLNYWGQGTQVTVSS | high polyreactivity |

| Sequence | polyreactivity (PSR sort gate) |
| --- | --- |
| QVQLVESGGGLVQAGGSLRLSCAASGRTLLLNTMGWYRQAPGKERELVAAISWRDGSTYYADSVKGRFTFSRDKAKNTVYLLMNSLKPEDTAVYYCNARLSGRSQYDVRFDYWGQGTQVTVSS | low polyreactivity |
| QVQLVESGGGLVQAGGSHRLTCAASGRTFIFYAMGWYRPEPGKERELVAAITYSGTSTYYADSVKGRFTISRDNAKNTVYLQMNSLKPEDTAVYYCAKDGQRDANYYWGQGTQVTVSS | low polyreactivity |
| QVQLVESGGGLVQAGGSLRLSCAASGSILADYAMGWDRQAPGKERELVAGISSGGSTNYADSVKGRFTISRDNAKNTVYLQMNSLKPEDTAVYYCNADQDFLFIGYLFDYWGQGTQVTVSS | low polyreactivity |
| QVQLVESVGGLVQEGGSLRLSSAATGYTFDVYAMGWSRQAPGKERELVAAISTRGTRTYYADSEKGRFTISRDNAKNTVYLQMNSLKPEDTAVYYCAAYVYDGETESRFDYWGQGTQVTVSS | high polyreactivity |
| QVQLVESGGGLVQAGGSLRLSCAASGSTFHRNAMGWYRQAPGKERELVASISIGGSTNYADSVKGRYTISRDNAKNTVYLQMNSLKPEDTAVYYCATEPNPRRPRVDYDYWGQGTQVTVSS | low polyreactivity |
| QVQLVESGGGLVQEGGSLRLSCAASGLIFGRYAMGWYRQAPGKERELVAAISSSGVRTYYADSVKGRFTISRDNAKNTVYLQMNSLKPEDTAVYYCAAAYWSSRDDTVIKRYYWGQGTQVTVSS | high polyreactivity |
| QDQLVESRGDLVQAGGSLRLSCAASGSIFYDYAMRWYRQAPGKERELVAASDSGRNTTYADSVKGRFTISRDNAKKTVYFQMNSLKPEATAVYYCKTDPGWFDDSPPDPYIYGGYDYWGQGTQVTVSS | high polyreactivity |
| QVQLVESGGGLVQAGGSLRLSCAASGRIFPYYAMGWYRQAPGKERELVAAISLSGGSTYYADSVKGRFTISRDNAKNTVYLQMNSLKPEDTAVYYCNAVASTYGYYWYPGLGYDYWGQGTQVTVSS | low polyreactivity |
| QVLLQESGGGLVQAGGSLRLSCAASGTISTDIRMGWYRLAPGKEREFVASIDGCSTTYYADSVKGRFTISRDNAKNTVYLQMNSLKPEDTEMYYCAAREATEFYLYYWGQGTQVTVSS | low polyreactivity |
| QVQLVESGGGLVQAGGSLRLSCAASGFTFHSYAMGWYRQAPGKERELVAAISTGGTRTYYADSVMGRVTISRDNAKNTVYLQMNSLKPEDTAVYYCAADLYRGVRIYSKYDSWGQGTQVTVSS | high polyreactivity |
| QVQLVESGGGLVQAGGSLRLSCAASGRIFNEYGMGWYRQAPGKERELVAAITWGGGSTYYADSVKGRFTISRDNAKNTVYVQMNSLKPEDTAVYYCNAVSERPIPWYYYWGQGTQVTVSS | low polyreactivity |
| QVQLVESGGALVQAGGSLRLSCAASGFTFYKNAMGWYRQAPGKERELVAAISRSAGSTYYADSVKGRFTISRDNAKNTVYFQMNSLKPEDTAVYYCNAVSDVKRYDYWGQGTQVTVSS | high polyreactivity |
| QVQLVESGGGLVQAGGSLRLSCAASGRILAYYAMGWYRQAPGKERELVDAINRSGVRTYYADSVKGRFTISRDYAKNTVYLQMNSLKPEDTAVYYCAAPGQHSWGQGTQVTVSS | high polyreactivity |
| QVQLVESGGGLVQAGGSLRLSCAASGSTFVIYGKGWYRQAPGKERELVASISGSGGSTFYADSVKGRFTISRDNAKITVYLEMNSRKPEDTAVYYCAAAVGVGRSGGTYDYWGQGTQVTVSS | low polyreactivity |
| QVQLVESGGVLVQAGGSLRLSCAASGFIFPYYAMGWYRPAPGKETELVAAIDQSGDSTYYADSVKGRFTISRDNAKNTVYLQMNSLKPEDTAVFYCAARAVGGVRGYRYDYWGQGTQVTVSS | high polyreactivity |
| QVQLVESGGGLVQAGGSLRLSCAASGFIFHVYAMGWYRQAPGKEREFVAGISWRGGRTYYADSVKGRFTISRDNAKNTVYLQLNSLKPEDTAVYYCAALGLNAGGKFDYWGQGTQVTVSS | high polyreactivity |
| QVQLVESGGGLVQAGGSLRLSCAASGSIFAVYTMGWYRQAPGKEREVVAAITKSGGRTYYADSVKGRFTISRDNAKNTVYLQMNSLKPEDTAVYYCARRRTIPYTLVDYDSWGQGTQVTVSS | low polyreactivity |
| QVQLVESGGGLVQAGGSLRLSCAASGFTFKYYAMGWYRQAPGKERELVAAITKRGGSTYYADSVKGRFTISRDNAKNTVYLQMNSLKPEDTEVYYCAAYYKSTYVPGDYWGQGTQVTVSS | high polyreactivity |
| QVQLVESGGGLVQAGGSLRLSCAASGRIFARNALGWYRQAPGKEGELVARIRASGGSTYYADSVKGRFTISRDNEKNTVYLQMNSLKPEDTAVYYCNARTSSPYRVDYWGQGTQVTVSS | high polyreactivity |
| QGQLVESGGGLVQAGGSLRLSCAASGRTFWYYTIGWYRQAPGKERELVAAISSGGRTNYADSVKGRFTISRDNAKNPVYLQMNSLKPEDTAVYYCASSRYYKYVERDYWGQGTQVTVSS | high polyreactivity |
| QVQLVESGGGLVQAGGSLRLSCAPSGNTFWDNAMGWYRQAPGKERELVAAIRWSTGSTHYADSVKGRFTISRDNAKNTVYLQMNSVKPEDTAVYYCDATDYYYYRDKYYGYDYWGQGNQVTVSS | low polyreactivity |
